Assay results from US9187525B2, “Methods of treating ophthalmic diseases using NPR-B agonists” (Shire Orphan Therapies GmbH, dated 2015).
Numbered stars: 1 amine (or outer) side, 2 acyl side, 3 side chain; on linkers, the order of the positions; unused ones are H or OH. Square brackets hold non-standard residues; d marks the D form. Ends that are not written are not given here. * marks the point of attachment. Dtp = (R)-2,2-dimethylthiazolidine-4-carboxylic acid, CC1(C)SC[C@@H](C(=O)[*:2])N1[*:1]; Ebe = (R)-2-amino-3-(methylsulfanyl)propanoic acid, CSC[C@H](N[*:1])C(=O)[*:2]; Sni = (S)-nipecotic acid, O=C([C@H]1CCCN([*:1])C1)[*:2]; Pro(trans-4-Ph) = O=C(O)[C@@H]1C[C@@H](c2ccccc2)CN1; Phe(3-CF3) = N[C@@H](Cc1cccc(C(F)(F)F)c1)C(=O)O; Azetidine3carboxylic = O=C(C1CN([*:1])C1)[*:2]; Phe(4-Cl) = N[C@@H](Cc1ccc(Cl)cc1)C(=O)O; Pro(cis-4-F) = O=C(O)[C@@H]1C[C@H](F)CN1; Pro(4S-NH2) = N[C@@H]1CN[C@H](C(=O)O)C1; Phe(3-Me) = Cc1cccc(C[C@H](N)C(=O)O)c1; Hyp = O=C(O)[C@@H]1C[C@@H](O)CN1; 2Thi = N[C@@H](Cc1cccs1)C(=O)O; 3Thi = N[C@@H](Cc1ccsc1)C(=O)O; NMeL = CN[C@@H](CC(C)C)C(=O)O; Tle = CC(C)(C)[C@H](N)C(=O)O; hLeu = CC(C)CC[C@H](N)C(=O)O; hSer = N[C@@H](CCO)C(=O)O; Thz = O=C(O)[C@@H]1CSCN1; Nva = CCC[C@H](N)C(=O)O; Hexanoyl = CCCCCC(=O)*; leu = not defined here; nle = not defined here; Occ = octanoic acid

T1: natriuretic peptide receptor-B (human)
T1 chain: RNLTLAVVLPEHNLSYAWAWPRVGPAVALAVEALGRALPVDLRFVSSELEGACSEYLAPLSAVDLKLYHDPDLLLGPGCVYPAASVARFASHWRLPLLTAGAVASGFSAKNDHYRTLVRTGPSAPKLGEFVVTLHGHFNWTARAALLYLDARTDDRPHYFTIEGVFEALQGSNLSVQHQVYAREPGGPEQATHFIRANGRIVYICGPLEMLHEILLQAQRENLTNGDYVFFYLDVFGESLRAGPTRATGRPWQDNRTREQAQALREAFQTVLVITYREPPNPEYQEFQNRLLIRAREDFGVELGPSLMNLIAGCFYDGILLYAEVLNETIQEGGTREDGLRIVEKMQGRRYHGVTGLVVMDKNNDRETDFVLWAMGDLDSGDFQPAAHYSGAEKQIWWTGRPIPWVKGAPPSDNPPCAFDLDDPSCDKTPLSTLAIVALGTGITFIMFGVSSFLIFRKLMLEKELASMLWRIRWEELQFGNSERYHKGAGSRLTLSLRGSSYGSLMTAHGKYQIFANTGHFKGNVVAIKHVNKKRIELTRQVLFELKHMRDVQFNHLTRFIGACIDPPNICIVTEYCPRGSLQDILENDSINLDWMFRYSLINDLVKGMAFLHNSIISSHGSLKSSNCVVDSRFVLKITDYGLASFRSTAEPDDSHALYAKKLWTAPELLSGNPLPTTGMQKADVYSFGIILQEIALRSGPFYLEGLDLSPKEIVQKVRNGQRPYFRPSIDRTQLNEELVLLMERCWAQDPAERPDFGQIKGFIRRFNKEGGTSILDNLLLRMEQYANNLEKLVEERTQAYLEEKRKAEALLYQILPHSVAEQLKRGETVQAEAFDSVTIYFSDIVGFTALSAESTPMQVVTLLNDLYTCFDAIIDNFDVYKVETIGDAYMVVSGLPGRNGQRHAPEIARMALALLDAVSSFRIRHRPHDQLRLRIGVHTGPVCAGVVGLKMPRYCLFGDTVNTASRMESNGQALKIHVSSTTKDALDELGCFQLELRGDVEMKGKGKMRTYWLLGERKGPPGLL


Molecular target: T1, natriuretic peptide receptor-B
Test: cell-based or functional assay

Binder | EC50 group, cGMP in GTM-3 cells
[Occ]A[2Thi]GLPLDRI-NH2 (not fully specified (residue 2); printed as Occ-ala-Thi-Gly-Leu-Pro-Leu-Asp-Arg-Ile-NH2) [JAL-1000] | ≤ 15 µM
[Occ]AFVLPLDRI-NH2 (not fully specified (residues 2, 4); printed as Occ-ala-Phe-val-Leu-Pro-Leu-Asp-Arg-Ile-NH2) [JAL-1012] | ≤ 15 µM
[Occ]AF[nle]LPLDRI-NH2 (not fully specified (residue 2); printed as Occ-ala-Phe-nle-Leu-Pro-Leu-Asp-Arg-Ile-NH2; reading uncertain) [JAL-1014] | ≤ 5 µM
[Occ][Sni]FGL[Hyp][NMeL]DRI-NH2 [JAL-1015] | ≤ 5 µM
[Occ]AFGLPL[hSer]RI-NH2 (not fully specified (residue 2); printed as Occ-ala-Phe-Gly-Leu-Pro-Leu-Hse-Arg-Ile-NH2) [JAL-0993] | ≤ 15 µM
[Occ]A[Phe(3-Me)]GLPLDRI-NH2 (not fully specified (residue 2); printed as Occ-ala-Mmf-Gly-Leu-Pro-Leu-Asp-Arg-Ile-NH2) [JAL-1006] | ≤ 15 µM
[Occ]AFGL[Dtp]LDRI-NH2 (not fully specified (residue 2); printed as Occ-ala-Phe-Gly-Leu-Dtp-Leu-Asp-Arg-Ile-NH2) [JAL-0979] | ≤ 15 µM
[Occ]AFSLPLDRI-NH2 (not fully specified (residues 2, 4); printed as Occ-ala-Phe-ser-Leu-Pro-Leu-Asp-Arg-Ile-NH2) [JAL-1010] | ≤ 5 µM
[Occ]AFG[Nva]PLDRI-NH2 (not fully specified (residue 2); printed as Occ-ala-Phe-Gly-Nva-Pro-Leu-Asp-Arg-Ile-NH2) [JAL-0996] | ≤ 15 µM
[Occ][Azetidine3carboxylic]FGLPLDRI-NH2 [JAL-0985] | ≤ 15 µM
[Occ]AFGLPLDR[Tle]-NH2 (not fully specified (residue 2); printed as Occ-ala-Phe-Gly-Leu-Pro-Leu-Asp-Arg-Tbg-) [JAL-0989] | ≤ 15 µM
[Occ]A[Phe(4-Cl)]GLPLDRI-NH2 (not fully specified (residue 2); printed as Occ-ala-Pcf-Gly-Leu-Pro-Leu-Asp-Arg-Ile-NH2) [JAL-1002] | ≤ 15 µM
Hexanoyl-S[dA]FGLKLDRISS-NH2 [JAL-0535] | ≤ 15 µM
[Occ]AFG[hLeu]PLDRI-NH2 (not fully specified (residue 2); printed as Occ-ala-Phe-Gly-Hle-Pro-Leu-Asp-Arg-Ile-NH2) [JAL-0998] | ≤ 15 µM
[Occ]A[Phe(3-CF3)]GLPLDRI-NH2 (not fully specified (residue 2); printed as Occ-ala-Mtf-Gly-Leu-Pro-Leu-Asp-Arg-Ile-NH2) [JAL-1005] | ≤ 15 µM
[Occ]AF[leu]LPLDRI-NH2 (not fully specified (residue 2); printed as Occ-ala-Phe-leu-Leu-Pro-Leu-Asp-Arg-Ile-NH2; reading uncertain) [JAL-1013] | ≤ 5 µM
[Occ]AFGL[Thz]LDRI-NH2 (not fully specified (residue 2); printed as Occ-ala-Phe-Gly-Leu-Eaz-Leu-Asp-Arg-Ile-NH2) [JAL-0980] | ≤ 15 µM
Hexanoyl-[Ebe][dP]FGLKIDRIS[Ebe]-NH2 [JAL-0534] | ≤ 15 µM
[Occ]AFGL[Pro(trans-4-Ph)]LDRI-NH2 (not fully specified (residue 2); printed as Occ-ala-Phe-Gly-Leu-Eay-Leu-Asp-Arg-Ile-NH2) [JAL-0975] | ≤ 15 µM
[Occ]AFGIPLDRI-NH2 (not fully specified (residue 2); printed as Occ-ala-Phe-Gly-Ile-Pro-Leu-Asp-Arg-Ile-NH2) [JAL-0995] | ≤ 15 µM
[Occ]AFGLPLSRI-NH2 (not fully specified (residue 2); printed as Occ-ala-Phe-Gly-Leu-Pro-Leu-Ser-Arg-Ile-NH2) [JAL-0992] | ≤ 15 µM
[Occ]AFGL[Pro(cis-4-F)]LDRI-NH2 (not fully specified (residue 2); printed as Occ-ala-Phe-Gly-Leu-Fpr-Leu-Asp-Arg-Ile-NH2) [JAL-0978] | ≤ 15 µM
[Occ]A[3Thi]GLPLDRI-NH2 (not fully specified (residue 2); printed as Occ-ala-Thk-Gly-Leu-Pro-Leu-Asp-Arg-Ile-NH2) [JAL-1003] | ≤ 15 µM
[Occ]AFTLPLDRI-NH2 (not fully specified (residues 2, 4); printed as Occ-ala-Phe-thr-Leu-Pro-Leu-Asp-Arg-Ile-NH2) [JAL-1011] | ≤ 5 µM
[Occ]AFGL[Pro(4S-NH2)]LDRI-NH2 (not fully specified (residue 2); printed as Occ-ala-Phe-Gly-Leu-Apr-Leu-Asp-Arg-Ile-NH2) [JAL-0974] | ≤ 5 µM
